Molecular target: A/California/04/2009 H1 (influenza A virus A/California/04/2009) (UniProt C3W5S1)
Assay: crystal structure

Work on “A/California/04/2009 H1 (from UniProt C3W5S1 18-520) (natural protein)” yielded a stoichiometry N of 2.

Reference: article PMC4978566
